The values that follow come from US5064430A, “Polynonapeptide bioelastomers having an increased elastic modulus” (UAB Research Foundation, priority 1989, dated 1991).

The conditions of series [1]: high molecular weight, cross-linked by γ-irradiation (background); cited from earlier work.
The nature of series [2]: Thermoelasticity studies (elastomeric force as a function of temperature). It counts as physicochemical. The following applies: γ-irradiation cross-linked (20 Mrad), fixed extension (40%), in water. The method, then: Thermoelasticity studies were carried out on a stress-stain instrument built in this Laboratory. The sample is mounted in two Delrin clamps. The top clamp is attached to a Statham UTC strain-gauge and the assembly is fixed. The bottom clamp is attached to a moving platform driven by a variable speed motor. Both clamps are enclosed in a thermostated water jacket. An inner chamber contains the solvent in which the elastomer is immersed which in this case is doubly distilled water. The sample was fixed in the top clamp and equilibrated in water at 60° C. for about an hour. The strain-gauge signal conditioner was balanced for zero force and the bottom clamp was attached to the sample. The sample was left to set overnight at room temperature. The bottom clamp was then adjusted for zero force and the distance between the clamps was measured. The elastomer was elongated to 40% extension at 5° C. and elastomeric force was then determined as a function of temperature. Equilibrium time to achieve constant force at a given temperature was typically twenty-four hours. Force measurements were made in 2° C. increments through the sharp rise in force and 5° C. increments at higher temperatures.
Thermoelasticity studies were carried out on a stress-strain apparatus. Clamping of the sample in the holder was done in two stages to prevent damage to the material at the clamp edge. The sample was first gripped lightly with the top clamp, raised to 60° C. while submerged in water within the temperature jacket and allowed to equilibrate for about 2 hours. The measured force consisting of the weight of the sample and grips in water were set to zero. The bottom grip was then attached to the sample and both grips tightened to hold the sample firmly. The bottom clamp was driven as in a stress-strain measurement and stopped at 40% elongation. Force data were recorded in 5° C. steps starting at 70° C. and continuing to 40° C. where the force approached zero.

A short description of series [3]: Temperature profiles of turbidity formation / coacervation (light scattering at 300 nm). The series is classed as physicochemical. The conditions noted are these: for onset of aggregation (coacervation): high molecular weight polymer in water; for midpoint of the temperature profile of turbidity formation / coacervation: 40 mg/ml (high concentration limit). The method, then:
FIG. 3 illustrates temperature profiles of turbidity (TP.tau.) data for poly(VPGFGVGAG) at 40 mg/ml and 1 mg/ml concentrations in H2 O. The aggregational process was monitored by measuring light scattering at 300 nm as a function of temperature using a Cary 14 recording spectrophotometer.
The temperature dependence for aggregation of the polypentapeptide is followed as the development of turbidity at 300 nm using a Cary 14 spectrophotometer. The sample cell is placed within a chamber vibrating at 300 Hz in order to facilitate equilibrium and to keep the aggregates from settling. The scan rate is 30° C./hour and the temperature was controlled with a Neslab ETP-3 programmer and monitored with an Omega 199A thermocouple monitor placed at the cell. The turbidity as a function of temperature provides a temperature profile for coacervation which is found to be concentration dependent. As the concentration is raised, the profile shifts to lower temperatures until further increases in concentration cause no further lowering of the temperature for aggregation. This defines the high concentration limit. The temperature for the onset of coacervation at the high concentration limit coincides with the temperature for the onset of the transition within the coacervate itself, even when there is no appreciable change in water content of the coacervate. […] When the midpoint is 25° C. for the PPP, the molecular weight is close to 100,000 daltons as calibrated by dialysis. For the Ile^1 -PPP with a midpoint of 9° C., the molecular weight is greater than 50,000 daltons, as the synthetic polypeptide was retained by a 50,000 daltons dialysis membrane. The dialysis was carried out at 4° C. where the Ilel-PPP is in solution.
Polypeptide coacervation in water is reversible aggregation to form a new phase with a distinct composition. Association occurs on raising the temperature, disassociation on lowering the temperature. The process of coacervation was followed by monitoring the turbidity as a function of temperature using a Cary 14 spectrophotometer set at 300 nm, a Neslab ETP-3 temperature programmer with a 30° C./hour scan rate and an Omega 199A thermocouple monitor. The sample cell was placed in a vibrating chamber (300 Hz) to keep the aggregates from settling and to facilitate equilibrium. The temperature profiles for coacervation are concentration dependent. Dilution from a high concentration, after the high concentration limit is reached (approximately 40 mg/ml for high molecular weight elastomeric polypeptides), results in a shift of the turbidity profile to higher temperature.

The nature of series [4]: Solubility in water as a function of temperature. It counts as physicochemical.
The subject of series [5] is fibroblasts. Put plainly: Checkerboard assay of Zigmond and Hirsch (chemotaxis) with fibroblasts. The series is classed as cell-based. The text has this:
The chemotaxis of the present polynonapeptide towards fibroblasts and endothelial cells can be determined and verified by the well known checkerboard assay of Zigmond and Hirsch. […] Checkerboard analysis of AGVPGFGVG and GFGVGAGVP sequences with fibroblasts using the procedure as described above afforded the following results which are represented graphically in Tables I and II.

A short description of series [6]: Stress/strain studies of γ-irradiation cross-linked matrices (elastic modulus). The conditions noted are these: 25 Mrad cross-linking dose. The series is classed as physicochemical.

Read-outs that look alike come from different tables or passages of the source. Ends that are not written are not given here.

Turning to “(Val-Pro-Gly-Val-Gly)n (VPGVG; also: polymer of repeating pentamer, (VPGVG)n) [PPP, reference compound]”, the elastic modulus in series [1] is ~10^6 dynes/cm^2. Moreover, the “temperature of essentially full elastic contraction / maximal elastomeric force” value in series [2] was 40 °C. For the same substance, the “onset of aggregation (coacervation)” value in series [3] was 24 °C. Moreover, the “midpoint of the temperature profile of turbidity formation / coacervation” value (shortened to “midpoint … of turbidity formation / coacervation”) in series [3] (in water) worked out at 25 °C.

Take “H-(Gly-Gly-Val-Pro)n -OH (H-GGVP-OH; also: repeated n times (polymer)) [PTP]”: the “temperature of essentially full elastic contraction / maximal elastomeric force” value in series [2] was ~70 °C. The “onset of aggregation (coacervation)” value in series [3] came to 48 °C. The “midpoint … of turbidity formation / coacervation” value in series [3] (in water) is 49 °C. Besides, the “temperature below which soluble in water” value in series [4] was “below 40 °C”.

For “H-(Gly-Val-Gly-Ile-Pro)n -OH (H-GVGIP-OH; also: polymer, (GVGIP) repeated n times) [Ile^1 -PPP]”, the “temperature of essentially full elastic contraction / maximal elastomeric force” value in series [2] was “about 25 °C”. In addition, in series [3], the “onset of aggregation (coacervation)” value is ~8 °C. The “midpoint … of turbidity formation / coacervation” value in series [3] (in water) worked out at 9 °C. For the same substance, the “temperature below which soluble in water” value in series [4] is “below 8 °C”.

Turning to PDGF, the figures for the “Checkerboard analysis with fibroblasts, positive control” value in series [5] (PDGF at 30 μg/ml (Table II experiment)) and in series [5] (PDGF at 60 μg/ml (Table I experiment)) were 59 and 21, respectively.

Regarding “Poly[Ala-Gly-Val-Pro-Gly-Phe-Gly-Val-Gly]-OH [poly(VPGFGVGAG)]”, the elastic modulus in series [6] is 10^8 dynes/cm^2. Also, the “midpoint of the temperature profile of turbidity formation” value in series [3] (in water, 1 mg/ml) is “about 11 °C”. Besides, the “midpoint … of turbidity formation / coacervation” value in series [3] (in water) is “about 8 °C”. Moreover, the “temperature below which soluble in water” value in series [4] was “below 5 °C”.
